Six molecules from PMC9596371 (Nature Chemical Biology, 2022) can be followed below.

Substitutions are numbered along the chain they refer to.

Sequences and labels used below:
B1: COVA2-14 IgG (antibody, V domains shown)
VH: QVQLVQSGAEVKKPGSSVKVSCKASGGTFSSYAIIWVRQAPGQGLEWMGGIIPIFGTANYAQKFQGRVTITTDESTSTAYMELSSLRSEDTAVYYCARVRYYDSSGYYEDYWGQGTLVTVSS
VL: EIVLTQSPATLSLSPGERATLSCRASQSVSSYLAWYQQEPGQAPRLLIYDASNRATGIPARFSGSGSGTDFTLTISSLEPEDFAVYYCQQRSNWPPMYTFGQGTKVEIK
B2: COV2-2449 IgG (antibody, V domains shown)
VH: QVQLVESGGGVVQPGRSLRLSCATSGFTFSSFALHWVRQAPGKGLEWVTVISDDGNNKYYVDSVKGRFTISRDNSKNTLFLQMNSLRVEDTAIYYCARASYNSNWSIGEYFRDWGQGTLVTVSS
VL: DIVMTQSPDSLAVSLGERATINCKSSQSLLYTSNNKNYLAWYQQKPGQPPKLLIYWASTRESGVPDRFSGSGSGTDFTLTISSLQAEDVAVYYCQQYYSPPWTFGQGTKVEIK
B3: COV2-2143 IgG (antibody, V domains shown)
VH: EVQLVESGGGLVQPGGSLRLSCAASGFTVSSNYMSWVRQAPGKGLEWVSVIYSAGSTYYADSVKGRFSISRDKSKNTLYLQMNSLRAEDTAVYYCAKEGGSGSLRYYYYGMDVWGQGTTVTVSS
VL: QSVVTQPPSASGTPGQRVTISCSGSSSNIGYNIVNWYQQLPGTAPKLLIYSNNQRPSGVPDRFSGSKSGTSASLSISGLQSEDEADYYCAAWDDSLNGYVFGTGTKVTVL
B4: COVA2-18 IgG (antibody, V domains shown)
VH: B1 VH with Q1E, I35S, A58T, R100Y, Y101S, E109L, D110E, L117R
VL: B1 VL with E39K, M97S, Y98I, K105R, V106L
B5: CV27 IgG (antibody, V domains shown)
VH: QVQLVESGGGVVQPGRSLRLSCAASGFTFSSYAMHWVRQAPGKGLEWVALISYDGSNKYYADSVKGRFTISRDNSKNTLYLQMNSLRAEDTAVYYCARSFGGSYYYGMDVWGQGTTVTVSS
VL: QSALTQPASVSGSPGQSITISCTGTSSDVGGYNYVSWYQQHPGKAPKLMIYDVSNRPSGVSNRFSGSKSGNTASLTISGLQAEDEADYYCSSYTSSSTPYVFGTGTKVTVL
B6: COV2-2147 IgG (antibody, V domains shown)
VH: B5 VH with V5A, L50V, F100T, G101S
VL: QSALTQPASVSGSPGQSITISCTGTSSDVGDYNYVSWYQQHPGKAPKLMIYDVSNRPSGVSNRFSGSKSGNTASLTISGLQAEDEAEYYCSSYTSSSTLLYVFGTGTKVTVL

The first experiment has as its target T1, SARS-CoV-1 spike protein (FL-GCN4-Avi-His, 2P, biotinylated trimer) (SARS-CoV (SARS-CoV-1), strain of …, UniProt P59594, stabilised, biotin on the Avi tag). The experiment in a line: ELISA. The following applies: both partners purified. Background: ELISA stands for enzyme-linked immunosorbent assay.
As to B1, the binding result was “binds”. The same measure, in the same setting: under B2 stands “binds”; under B3, “binds”.

A further experiment deals with T1, SARS-CoV-1 spike protein …. Description: BLI. The following applies: both partners purified.
For B4, the binding result is “binds”. Regarding B5, the binding result is “binds”. Same read-out and setting: under B6 stands “binds”.
